# B1: Tyrosine--tRNA ligase, cytoplasmic (Homo sapiens), P54577 (parent)
# chain: MGDAPSPEEKLHLITRNLQEVLGEEKLKEILKERELKIYWGTATTGKPHVAYFVPMSKIADFLKAGCEVTILFADLHAYLDNMKAPWELLELRVSYYENVIKAMLESIGVPLEKLKFIKGTDYQLSKEYTLDVYRLSSVVTQHDSKKAGAEVVKQVEHPLLSGLLYPGLQALDEEYLKVDAQFGGIDQRKIFTFAEKYLPALGYSKRVHLMNPMVPGLTGSKMSSSEEESKIDLLDRKEDVKKKLKKAFCEPGNVENNGVLSFIKHVLFPLKSEFVILRDEKWGGNKTYTAYVDLEKDFAAEVVHPGDLKNSVEVALNKLLDPIREKFNTPALKKLASAAYPDPSKQKPMAKGPAKNSEPEEVIPSRLDIRVGKIITVEKHPDADSLYVEKIDVGEAEPRTVVSGLVQFVPKEELQDRLVVVLCNLKPQKMRGVESQGMLLCASIEGINRQVEPLDPPAGSAPGEHVFVKGYEKGQPDEELKPKKKVFEKLQADFKISEECIAQWKQTNFMTKLGSISCKSLKGGNIS
# Variants of: B1
# Settings: with parp1_human PARP1, P09874
# Chain of parp1_human PARP1, P09874 (P09874 whole entry): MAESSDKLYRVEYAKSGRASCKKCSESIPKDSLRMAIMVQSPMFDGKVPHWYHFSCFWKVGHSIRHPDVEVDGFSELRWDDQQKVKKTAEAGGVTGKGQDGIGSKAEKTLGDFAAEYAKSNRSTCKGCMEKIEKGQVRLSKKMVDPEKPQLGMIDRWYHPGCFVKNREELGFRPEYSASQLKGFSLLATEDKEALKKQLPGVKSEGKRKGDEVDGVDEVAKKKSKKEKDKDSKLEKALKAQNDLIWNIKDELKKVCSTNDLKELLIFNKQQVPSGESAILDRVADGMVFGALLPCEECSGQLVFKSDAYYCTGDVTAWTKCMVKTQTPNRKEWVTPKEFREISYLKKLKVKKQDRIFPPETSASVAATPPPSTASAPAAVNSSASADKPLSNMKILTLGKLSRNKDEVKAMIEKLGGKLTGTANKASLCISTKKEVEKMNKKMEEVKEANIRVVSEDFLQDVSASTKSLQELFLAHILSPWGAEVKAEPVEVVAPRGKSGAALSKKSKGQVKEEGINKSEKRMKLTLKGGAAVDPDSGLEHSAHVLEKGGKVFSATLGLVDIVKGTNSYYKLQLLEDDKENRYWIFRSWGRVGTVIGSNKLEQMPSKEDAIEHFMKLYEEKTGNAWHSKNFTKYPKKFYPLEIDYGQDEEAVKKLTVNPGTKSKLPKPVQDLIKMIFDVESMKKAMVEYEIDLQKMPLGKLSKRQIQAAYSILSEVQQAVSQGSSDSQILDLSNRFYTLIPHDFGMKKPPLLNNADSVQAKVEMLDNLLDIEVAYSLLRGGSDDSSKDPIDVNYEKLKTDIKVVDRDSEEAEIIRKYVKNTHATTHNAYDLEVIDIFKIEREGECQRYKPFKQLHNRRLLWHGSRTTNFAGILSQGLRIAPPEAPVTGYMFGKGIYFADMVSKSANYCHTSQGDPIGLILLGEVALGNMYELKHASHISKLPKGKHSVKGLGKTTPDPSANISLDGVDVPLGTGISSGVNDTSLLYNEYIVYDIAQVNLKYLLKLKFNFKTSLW
row,Variant,effect of a mutation on the interaction
1,MGDAPSPEEKLHLITRNLQEVLGEEKLKEILKERELKIYWGTATTGKPHVAYFVPMSKIADFLKAGCEVTILFADLHAYLDNMKAPWELLELRVSYYENVIKAMLESIGVPLEKLKFIKGTDYQLSKEYTLDVYRLSSVVTQHDSKKAGAEVVKQVEHPLLSGLLYPGLQALDEEYLKVDAQFGGIDQRKIFTFAEKYLPALGYSKRVHLMNPMVPGLTGSKMSSSEEESKIDLLDRKEDVKKKLKKAFCEPGNVENNGVLSFIKHVLFPLKSEFVILRDEKWGGNKTYTAYVDLEKDFAAEVVHPGDLKNSVEVALNKLLDPIREKFNTPALKKLASAAAPDPSKQKPMAKGPAKNSEPEEVIPSRLDIRVGKIITVEKHPDADSLYVEKIDVGEAEPRTVVSGLVQFVPKEELQDRLVVVLCNLKPQKMRGVESQGMLLCASIEGINRQVEPLDPPAGSAPGEHVFVKGYEKGQPDEELKPKKKVFEKLQADFKISEECIAQWKQTNFMTKLGSISCKSLKGGNIS [Y341A],increasing interaction strength

# Source: IntAct's records for PubMed 25533949
